Laboratory results from paper PMC4202109 (The FASEB Journal, 2014).

Molecular target: Fluorescently labeled ATS (intracellular segment) of PfEMP1 variant PF08_0141, full-length segment (P. falciparum, 5-FAM label)
Test: fluorescence polarisation

B1: PFI1780w PHIST domain (as used in fluorescence polarization) (domain or fragment)
chain: SLSDEINKCDMKKYTAEEINEMINSSNEFINRNDMNIIFSYVHESEREKFKKVEENIFKFIQSIVETYKIPDEYKMRKFKFAHFEMQGYALKQEKFLLEYAFLSLNGKLCERKKFKEVLEYVKREWIEFRKSMFDVWKEKLASEFREHGEMLNQKRKLKQHEL
fold lower affinity than PFE1605w: ~30 fold
